The text below walks through data of US20050272090, “Nucleic acid binding of multi-zinc finger transcription factors” (published 2005).

Series [1] addresses T1, SIP1 full length in cells (Mus musculus) (UniProt Q9R0G7).
T1 sequence: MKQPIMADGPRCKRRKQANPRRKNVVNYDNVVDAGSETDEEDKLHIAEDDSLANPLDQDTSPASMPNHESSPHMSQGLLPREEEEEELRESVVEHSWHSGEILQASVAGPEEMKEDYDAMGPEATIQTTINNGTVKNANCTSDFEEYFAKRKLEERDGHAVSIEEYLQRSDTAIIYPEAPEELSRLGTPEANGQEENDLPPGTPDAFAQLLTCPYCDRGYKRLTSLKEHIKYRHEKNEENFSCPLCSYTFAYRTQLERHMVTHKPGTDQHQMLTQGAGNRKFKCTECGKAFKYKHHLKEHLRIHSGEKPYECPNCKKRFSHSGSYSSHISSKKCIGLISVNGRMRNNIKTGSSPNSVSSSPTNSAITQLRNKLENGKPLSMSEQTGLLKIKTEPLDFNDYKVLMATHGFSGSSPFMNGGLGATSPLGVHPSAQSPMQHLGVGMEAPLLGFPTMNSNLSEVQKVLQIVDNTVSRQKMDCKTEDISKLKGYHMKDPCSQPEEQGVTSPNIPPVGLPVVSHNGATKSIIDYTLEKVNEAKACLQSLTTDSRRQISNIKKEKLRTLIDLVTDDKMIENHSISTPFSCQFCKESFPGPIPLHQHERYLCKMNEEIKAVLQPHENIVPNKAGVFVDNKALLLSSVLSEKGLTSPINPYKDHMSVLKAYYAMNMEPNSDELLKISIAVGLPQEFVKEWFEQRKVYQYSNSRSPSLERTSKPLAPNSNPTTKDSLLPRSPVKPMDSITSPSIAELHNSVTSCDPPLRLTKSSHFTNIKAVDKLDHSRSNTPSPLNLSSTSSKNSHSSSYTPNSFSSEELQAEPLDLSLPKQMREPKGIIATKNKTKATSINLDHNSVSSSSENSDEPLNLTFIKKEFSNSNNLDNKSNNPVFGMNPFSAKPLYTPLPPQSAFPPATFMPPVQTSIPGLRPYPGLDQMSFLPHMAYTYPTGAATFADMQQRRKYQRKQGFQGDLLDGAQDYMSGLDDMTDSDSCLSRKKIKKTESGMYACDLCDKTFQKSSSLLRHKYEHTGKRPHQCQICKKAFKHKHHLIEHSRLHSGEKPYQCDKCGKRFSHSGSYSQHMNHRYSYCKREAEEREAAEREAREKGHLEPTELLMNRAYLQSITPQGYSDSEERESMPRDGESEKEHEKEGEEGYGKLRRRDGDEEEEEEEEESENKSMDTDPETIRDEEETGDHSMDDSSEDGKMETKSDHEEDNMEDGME
Description: cell_activity. As to conditions: luciferase reporter in NMe, MDCK, MCF7/AZ.

Series [2] addresses T2, SIP1 full length (SIP1FS) (Mus musculus, UniProt Q9R0G7 Q9R0G7:1-1215).
T2 sequence: T1 sequence
Description: EMSA; affinity relative to SIP1CZF, estimated from expression levels. As to conditions: tags: N-terminal Myc6 (pCS3), COS1 cell extract; label: 32P. As to the method:
The Xbra-WT oligonucleotide covers the region from −344 to −294 of the Xbra2 promoter (16). The region between −412 to −352 of the α4-integrin promoter is present within the α4I-WT oligonucleotide (26). The Ecad-WT probe contains the region between −86 to −17 of the human Ecad promoter (2). Double-stranded oligonucleotides were labeled with [³²P]-γ-ATP and T4 polynucleotide kinase (New England Biolabs). Total cell extracts were prepared from COS1 cells (25) transfected with different pCS3 vectors allowing synthesis of full length SIP1, full length δEF1, and different mutant forms of SIP1 (25), or co-production of equal amounts of Myc-tagged SP1 and FLAG-tagged SIP1. GST-SIP1 fusion proteins were purified from E. coli extract using the GST purification module (Pharmacia), and tested in gel retardation. The DNA binding assay (20 μl) was performed at 25° C., with 1 μg of COS1 total cell protein, 1 μg of poly dI-dC, 10 pg of ³²P-labeled double-stranded oligonucleotide (approx. 10⁴ Cerenkov counts) in the δEF1 binding buffer described previously (30). For supershift experiments, the extracts were incubated with anti-Myc (Santa Cruz) or anti-FLAG (Kodak) antibodies. For competition, an excess of unlabeled double-stranded oligonucleotides was added together with the labeled probe. […]

In series [1], E-cadherin promoter reporter registered an activity (% decrease of promoter activity) of 80.

B1: Xbra-WT (dsDNA)
DNA 1: ATCCAGGCCACCTAAAATATAGAATGATAAAGTGACCAGGTGTCAGTTCT
DNA 2: AGAACTGACACCTGGTCACTTTATCATTCTATATTTTAGGTGGCCTGGAT
Regarding B1, the binding signal in series [2] is ≥ 50 fold.
